Changes are numbered by the printed parent chain. Names and notes keep the numbering of the source.
B1: IL6R-BP089/IL6R-L (antibody, human IgG1, kappa)
heavy: QVQLQESGPGLVKPSETLSLTCAVSGHSISHDHAWSWVRQPPGEGLEWIGFISYSGITNYNPSLQGRVTISRDNSKNTLYLQMNSLRAEDTAVYYCARSLARTTAMDYWGEGTLVTVSSASTKGPSVFPLAPSSKSTSGGTAALGCLVKDYFPEPVTVSWNSGALTSGVHTFPAVLQSSGLYSLSSVVTVPSSSLGTQTYICNVNHKPSNTKVDKKVEPKSCDKTHTCPPCPAPEYLGGDSVFLFPPKPKDTLMISRTPEVTCVVVDVSHEDPEVKFNWYVDGVEVHNAKTKPREEQYNSTYRVVSVLTVLHQDWLNGKEYKCKVSNAALPKPIEKTISKAKGQPREPQVYTLPPSRDELTKNQVSLTCLVKGFYPSDIAVEWESNGQPENNYKTTPPVLDSDGSFFLYSKLTVDKSRWQQGNVFSCSVMHEALHNHYTQESLSLSP
light: not shown
notes: EU numbering; alterations on IL6R-B3; copies: 2 + 2
B2: IL6R-BP129/IL6R-L (antibody, human IgG1, kappa)
heavy: B1 heavy with E235D, Y236L, Y298D, A328K
light: not shown
notes: as for B1
B3: IL6R-BP176/IL6R-L (antibody, human IgG1, kappa)
heavy: B1 heavy with E235D, Y236L, A328D
light: not shown
notes: as for B1
B4: IL6R-BP541/IL6R-L (antibody, human IgG1, kappa)
heavy: B1 heavy with E235D, Y236L, G239D, H270D, P273G, K276Q, Y298D, A328K, K332R
light: not shown
notes: K274Q introduced into IL6R-BP230; copies: 2 + 2
B5: IL6R-BP543/IL6R-L (antibody, human IgG1, kappa)
heavy: B1 heavy with E235D, Y236L, G239D, H270Q, P273G, Y298D, A328K, K332R
light: not shown
notes: H268Q introduced into IL6R-BP230 (takes the place of H268D); copies: 2 + 2
B6: IL6R-BP544/IL6R-L (antibody, human IgG1, kappa)
heavy: B1 heavy with E235D, Y236L, G239D, H270D, P273G, Y298D, A328K, K332R, R357Q
light: not shown
notes: R355Q introduced into IL6R-BP230; copies: 2 + 2
B7: IL6R-BP546/IL6R-L (antibody, human IgG1, kappa)
heavy: B1 heavy with E235D, Y236L, G239D, H270D, P273G, Y298D, A328K, K332R, L360M
light: not shown
notes: L358M introduced into IL6R-BP230; copies: 2 + 2
B8: IL6R-BP548/IL6R-L (antibody, human IgG1, kappa)
heavy: B1 heavy with E235D, Y236L, G239D, H270D, P273G, Y298D, A328K, K332R, Q421E
light: not shown
notes: Q419E introduced into IL6R-BP230; copies: 2 + 2
B9: IL6R-BP564/IL6R-L (antibody, human IgG1, kappa)
heavy: B1 heavy with Y236L, G239D, H270E, P273G, E274D, Y298D, A328K, K332R
light: not shown
notes: copies: 2 + 2
B10: IL6R-BP560/IL6R-L (antibody, human IgG1, kappa)
heavy: B1 heavy with Y236L, S269G, H270E, P273G, Y298D, A328K, K332R
light: not shown
notes: anti-human IL-6 receptor IgG1 variant; copies: 2 + 2
B11: IL6R-BP562/IL6R-L (antibody, human IgG1, kappa)
heavy: B1 heavy with Y236L, G239D, H270D, P273G, E274D, Y298D, A328K, K332R
light: not shown
notes: copies: 2 + 2
B12: IL6R-BP423/IL6R-L (antibody, human IgG1, kappa)
heavy: B1 heavy with E235D, Y236L, G239D, S269A, H270E, P273G, A328K, K332R
light: not shown
notes: alterations counted against IL6R-B3; copies: 2 + 2
B13: IL6R-BP451/IL6R-L (antibody, human IgG1, kappa)
heavy: B1 heavy with E235D, Y236L, G239D, S269A, H270E, P273G, A328K, K332R, P398G
light: not shown
notes: P396G introduced into IL6R-BP423; copies: 2 + 2
B14: IL6R-BP561/IL6R-L (antibody, human IgG1, kappa)
heavy: B1 heavy with E235D, Y236L, G239D, H270D, P273G, E274D, Y298D, A328K, K332R
light: not shown
notes: copies: 2 + 2
B15: IL6R-BP493/IL6R-L (antibody, human IgG1, kappa)
heavy: B1 heavy with Y236L, V266I, S269A, H270E, P273G, Y298D, A328K, K332A
light: not shown
notes: copies: 2 + 2
B16: IL6R-BP557/IL6R-L (antibody, human IgG1, kappa)
heavy: B1 heavy with Y236L, G239D, S269G, H270D, P273G, Y298D, A328K, K332R
light: not shown
notes: copies: 2 + 2
B17: IL6R-BP220/IL6R-L (antibody, human IgG1, kappa)
heavy: B1 heavy with E235D, Y236L, G239D, H270D, P273G, Y298D, A328K
light: not shown
notes: copies: 2 + 2
B18: IL6R-BP233/IL6R-L (antibody, human IgG1, kappa)
heavy: B1 heavy with G239D, P273G, A328K
light: not shown
notes: copies: 2 + 2
B19: IL6R-BP246/IL6R-L (antibody, human IgG1, kappa)
heavy: B1 heavy with E235D, Y236L, G239D, S269Q, H270D, P273G, Y298D, K332R
light: not shown
notes: copies: 2 + 2
B20: IL6R-BP249/IL6R-L (antibody, human IgG1, kappa)
heavy: B1 heavy with E235D, G239D, H270D, P273G, Y298D, A328K, K332R
light: not shown
notes: copies: 2 + 2

Target: T1, human FcγRIIa type H extracellular domain with C-terminal His tag (human, UniProt P12318 34-217)
T1 construct: extracellular domain; also called FcγRIIaH; FcgRIIaH
T1 sequence (looked up): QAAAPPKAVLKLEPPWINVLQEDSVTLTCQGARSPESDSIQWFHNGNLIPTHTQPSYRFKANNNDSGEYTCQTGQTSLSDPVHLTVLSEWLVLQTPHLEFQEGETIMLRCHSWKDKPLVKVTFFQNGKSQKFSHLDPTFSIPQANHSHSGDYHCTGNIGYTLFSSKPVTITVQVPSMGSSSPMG
Test: SPR (Biacore)

Row | Binder | Kd
1 | B1 | 20000 nM
2 | B2 | 40000 nM
3 | B3 | 30000 nM

Target: T2, human FcγRIIb extracellular domain with C-terminal His tag (human, UniProt P31994 43-217)
T2 construct: extracellular domain; not shown: His tag at the C terminus
T2 sequence (looked up): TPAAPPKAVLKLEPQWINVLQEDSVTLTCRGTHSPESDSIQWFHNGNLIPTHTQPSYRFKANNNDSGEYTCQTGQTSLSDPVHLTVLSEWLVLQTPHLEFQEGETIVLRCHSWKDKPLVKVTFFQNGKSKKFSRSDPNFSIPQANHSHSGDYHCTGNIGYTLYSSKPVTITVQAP
Test: SPR (Biacore); KD for FcγRIIaR divided by KD for FcγRIIb

Row | Binder | KD(IIaR)/KD(IIb)
4 | B4 | 27.8
5 | B5 | 27.3
6 | B6 | 28.8
7 | B7 | 32.8
8 | B8 | 26.2

Target: T3, human FcγRIIa type R extracellular domain (human, UniProt P12318 34-217)
T3 construct: also called FcγRIIaR; FcγRIIa(R); not shown: His tag at the C terminus
T3 chain: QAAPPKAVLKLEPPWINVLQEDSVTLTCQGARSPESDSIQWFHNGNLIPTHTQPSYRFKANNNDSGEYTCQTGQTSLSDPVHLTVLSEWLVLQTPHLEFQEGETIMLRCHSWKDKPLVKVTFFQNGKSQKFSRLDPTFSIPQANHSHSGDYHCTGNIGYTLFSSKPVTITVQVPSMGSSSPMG
Test: fold against IL6R-B3/IL6R-L, from SPR KD values

Row | Binder | KD(IIaR) of the parent polypeptide/KD(IIaR) of the altered polypeptide
9 | B9 | 1.9
10 | B10 | 0.3
11 | B11 | 1.6

Target: T4, human FcγRIIb extracellular domain (human, UniProt P31994 43-217)
T4 construct: also called FcγIIB; not shown: His tag at the C terminus
T4 sequence: T2 sequence (looked up)
Test: fold against IL6R-B3/IL6R-L, from SPR KD values

Row | Binder | KD(IIb) of the parent polypeptide/KD(IIb) of the altered polypeptide
12 | B9 | 141
13 | B10 | 16.8
14 | B11 | 131

Target: T4, human FcγRIIb extracellular domain
Test: ratio of the SPR KD for FcγRIIaR to the KD for FcγRIIb (selectivity)

Row | Binder | KD(IIaR)/KD(IIb)
15 | B9 | 26.2
16 | B10 | 22.8
17 | B11 | 29

Target: T5, human FcγRIIa type R (R131) extracellular domain with C-terminal His tag (human, UniProt P12318 34-217)
T5 construct: extracellular domain; also called FcγRIIaR; not shown: His tag at the C terminus
T5 sequence (looked up): T1 sequence (looked up) with H134R
Test: SPR (Biacore); KD of IL6R-B3/IL6R-L divided by KD of this antibody

Row | Binder | KD(IIaR) of parent polypeptide/KD(IIaR) of altered polypeptide
18 | B4 | 2.4
19 | B5 | 1.9
20 | B6 | 2.2
21 | B7 | 2.2
22 | B8 | 2.2

Target: T2, human FcγRIIb extracellular domain with …
Test: as above

Row | Binder | KD(IIb) of parent polypeptide/KD(IIb) of altered polypeptide
23 | B4 | 190
24 | B5 | 152
25 | B6 | 184
26 | B7 | 205
27 | B8 | 162

Target: T6, human FcγRIIa type H (H131) extracellular domain with C-terminal His tag (human, UniProt P12318 34-217)
T6 construct: extracellular domain; also called FcγRIIaH; not shown: His tag at the C terminus
T6 sequence (looked up): T1 sequence (looked up)
Test: SPR (Biacore), antibody captured, FcγR analyte

Row | Binder | Kd
28 | B12 | 2000 nM
29 | B13 | 2000 nM

Target: T3, human FcγRIIa type R extracellular …
Test: SPR (Biacore), antibody captured on chip, FcγR extracellular domain as analyte, 25 C

Row | Binder | Kd
30 | B9 | 580 nM
31 | B10 | 4200 nM
32 | B14 | 510 nM
33 | B11 | 680 nM

Target: T7, human FcγRIa extracellular domain (human, UniProt P12314 16-292)
T7 construct: also called CD64; not shown: His tag at the C terminus
T7 sequence (P12314 16-292): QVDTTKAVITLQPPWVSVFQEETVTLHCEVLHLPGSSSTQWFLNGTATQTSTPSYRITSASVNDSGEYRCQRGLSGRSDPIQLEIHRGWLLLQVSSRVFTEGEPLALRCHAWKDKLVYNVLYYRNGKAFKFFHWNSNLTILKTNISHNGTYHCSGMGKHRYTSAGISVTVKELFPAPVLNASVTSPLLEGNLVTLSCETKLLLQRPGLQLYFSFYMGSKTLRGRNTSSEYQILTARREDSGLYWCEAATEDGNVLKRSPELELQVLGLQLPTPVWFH
Test: as above

Row | Binder | Kd
34 | B9 | 31 nM
35 | B10 | 5.6 nM
36 | B14 | 9.4 nM
37 | B11 | 25 nM

Target: T4, human FcγRIIb extracellular domain
Test: as above

Row | Binder | Kd
38 | B9 | 22 nM
39 | B10 | 180 nM
40 | B14 | 18 nM
41 | B11 | 24 nM

Target: T8, human FcγRIIa type R extracellular domain with C-terminal His tag (human, UniProt P12318 34-217)
T8 construct: extracellular domain; also called FcγRIIaR; FcγRIIa(R)
T8 sequence (looked up): T1 sequence (looked up) with H134R
Test: SPR (Biacore); worded summary of Table 28

Row | Binder | FcγRIIaR binding as compared to IL6R-B3/IL6R-L
42 | B15 | ≤ 1.5 times
43 | B16 | ≤ 1.5 times

Target: T9, human FcγRIIb extracellular domain with C-terminal His tag (human, UniProt P31994 43-217)
T9 construct: extracellular domain
T9 sequence (looked up): T2 sequence (looked up)
Test: SPR (Biacore); worded summary of Table 28

Row | Binder | FcγRIIb-binding activity as compared to IL6R-B3/IL6R-L
44 | B15 | ≥ 100 times
45 | B16 | ≥ 100 times

Target: T4, human FcγRIIb extracellular domain
Test: ratio of the SPR KD for FcγRIIaH to the KD for FcγRIIb (selectivity)

Row | Binder | KD(IIaH)/KD(IIb)
46 | B9 | 454
47 | B10 | 168
48 | B11 | 466

Target: T10, human FcγRIa extracellular domain with C-terminal His tag (human, UniProt P12314 16-292)
T10 construct: extracellular domain
Test: SPR (Biacore)
T10 sequence (P12314 16-292): as above

Row | Binder | Kd
49 | B15 | 0.82 nM

Target: T8, human FcγRIIa type R extracellular …
Test: SPR (Biacore)

Row | Binder | Kd
50 | B16 | 850 nM

Target: T9, human FcγRIIb extracellular domain with …
Test: SPR (Biacore)

Row | Binder | Kd
51 | B15 | 21 nM
52 | B16 | 20 nM

Target: T11, human FcγRIa extracellular domain with C-terminal His tag (human, UniProt P12314 16-292)
T11 construct: not shown: His tag at the C terminus
Test: SPR (Biacore), antibody captured, FcγR analyte
T11 sequence (P12314 16-292): as above

Row | Binder | Kd
53 | B4 | 11 nM
54 | B5 | 23 nM
55 | B6 | 9.8 nM
56 | B7 | 9 nM
57 | B8 | 12 nM

Target: T5, human FcγRIIa type R (R131) …
Test: SPR (Biacore), antibody captured, FcγR analyte

Row | Binder | Kd
58 | B4 | 450 nM
59 | B5 | 560 nM
60 | B6 | 480 nM
61 | B7 | 500 nM
62 | B8 | 500 nM

Target: T2, human FcγRIIb extracellular domain with …
Test: SPR (Biacore), antibody captured, FcγR analyte

Row | Binder | Kd
63 | B4 | 16 nM
64 | B5 | 20 nM
65 | B6 | 17 nM
66 | B7 | 15 nM
67 | B8 | 19 nM

Target: T12, human FcγRIa extracellular domain with C-terminal His tag (human, UniProt P12314 16-292)
T12 construct: not shown: His tag at the C terminus
Test: SPR (Biacore), antibody captured, FcγR analyte
T12 sequence (P12314 16-292): as above

Row | Binder | Kd
68 | B17 | 20 nM
69 | B18 | 70 nM
70 | B19 | 8 nM
71 | B20 | 7 nM

From US20220389118A1 (Chugai, published 2022)
